Data taken from patent US12679878B2, “CRF2 receptor agonists and their use in therapy” (SANOFI, priority 2020, dated 2026).
Starred links: 1 amine or outer side, 2 acyl side, 3 side chain; linkers in the order of their positions; H or OH if unused. Groups on a side chain read outwards from the residue. No end group written: not given here. *: point of attachment. C18 diacid = O=C(O)CCCCCCCCCCCCCCCCC(=O)*; γGlu = O=C(O)[C@H](CCC(=O)[*:2])N[*:1]; Palmitoyl = CCCCCCCCCCCCCCCC(=O)*; AEEA = NCCOCCOCC(=O)O

B1: SEQ ID NO: 58 (peptide)
peptide: FTLSLDVPTKIKQILFKQQKQKKERQQAEKNKQLLEQI-NH2
modifications: not fully specified (residue 12); printed as FTLSLDVPTKIK*QILFKQQKQKKERQQAEKNKQLLEQI-NH2
B2: SEQ ID NO: 59 (peptide)
peptide: FTLSLDVPTKIKQILLKQQKQKKERQQAEKNKQLLEQI-NH2
modifications: not fully specified (residue 12); printed as FTLSLDVPTKIK*QILLKQQKQKKERQQAEKNKQLLEQI-NH2
B3: SEQ ID NO: 56 (peptide)
peptide: FTLSLDVPIGLK([AEEA-AEEA-γGlu-C18 diacid])QILLKQQKQKKERQQAETNVQLLERV-NH2
modifications: N-terminus assumed
SMILES: CC[C@H](C)[C@H](NC(=O)[C@H](CCC(N)=O)NC(=O)[C@H](CCCCNC(=O)COCCOCCNC(=O)COCCOCCNC(=O)CC[C@H](NC(=O)CCCCCCCCCCCCCCCCC(=O)O)C(=O)O)NC(=O)[C@H](CC(C)C)NC(=O)CNC(=O)[C@@H](NC(=O)[C@@H]1CCCN1C(=O)[C@@H](NC(=O)[C@H](CC(=O)O)NC(=O)[C@H](CC(C)C)NC(=O)[C@H](CO)NC(=O)[C@H](CC(C)C)NC(=O)[C@@H](NC(=O)[C@@H](N)Cc1ccccc1)[C@@H](C)O)C(C)C)[C@@H](C)CC)C(=O)N[C@@H](CC(C)C)C(=O)N[C@@H](CC(C)C)C(=O)N[C@@H](CCCCN)C(=O)N[C@@H](CCC(N)=O)C(=O)N[C@@H](CCC(N)=O)C(=O)N[C@@H](CCCCN)C(=O)N[C@@H](CCC(N)=O)C(=O)N[C@@H](CCCCN)C(=O)N[C@@H](CCCCN)C(=O)N[C@@H](CCC(=O)O)C(=O)N[C@@H](CCCNC(=N)N)C(=O)N[C@@H](CCC(N)=O)C(=O)N[C@@H](CCC(N)=O)C(=O)N[C@@H](C)C(=O)N[C@@H](CCC(=O)O)C(=O)N[C@H](C(=O)N[C@@H](CC(N)=O)C(=O)N[C@H](C(=O)N[C@@H](CCC(N)=O)C(=O)N[C@@H](CC(C)C)C(=O)N[C@@H](CC(C)C)C(=O)N[C@@H](CCC(=O)O)C(=O)N[C@@H](CCCNC(=N)N)C(=O)N[C@H](C(N)=O)C(C)C)C(C)C)[C@@H](C)O
B4: SEQ ID NO: 60 (peptide)
peptide: FTLSLDVPTKIKQILLKQQKQKKERQQAEKNKQLLERV-NH2
modifications: not fully specified (residue 12); printed as FTLSLDVPTKIK*QILLKQQKQKKERQQAEKNKQLLERV-NH2
B5: SEQ ID NO: 65 (peptide)
peptide: FTLSLDVPIGLKQILLKQQKQKKERQQAETNVQLLERV-NH2
modifications: not fully specified (residue 12); printed as FTLSLDVPIGLK*QILLKQQKQKKERQQAETNVQLLERV-NH2
B6: SEQ ID NO: 64 (peptide)
peptide: FTLSLDVPTKIKQILLKQQKQKKERQKAETNVQLLERV-NH2
modifications: not fully specified (residue 12); printed as FTLSLDVPTKIK*QILLKQQKQKKERQKAETNVQLLERV-NH2
B7: SEQ ID NO: 57 (peptide)
peptide: FTLSLDVPIGLK([AEEA-AEEA-γGlu-C18 diacid])QILLKQQKQKKERQKAETNVQLLERV-NH2
modifications: N-terminus assumed
SMILES: CC[C@H](C)[C@H](NC(=O)[C@H](CCC(N)=O)NC(=O)[C@H](CCCCNC(=O)COCCOCCNC(=O)COCCOCCNC(=O)CC[C@H](NC(=O)CCCCCCCCCCCCCCCCC(=O)O)C(=O)O)NC(=O)[C@H](CC(C)C)NC(=O)CNC(=O)[C@@H](NC(=O)[C@@H]1CCCN1C(=O)[C@@H](NC(=O)[C@H](CC(=O)O)NC(=O)[C@H](CC(C)C)NC(=O)[C@H](CO)NC(=O)[C@H](CC(C)C)NC(=O)[C@@H](NC(=O)[C@@H](N)Cc1ccccc1)[C@@H](C)O)C(C)C)[C@@H](C)CC)C(=O)N[C@@H](CC(C)C)C(=O)N[C@@H](CC(C)C)C(=O)N[C@@H](CCCCN)C(=O)N[C@@H](CCC(N)=O)C(=O)N[C@@H](CCC(N)=O)C(=O)N[C@@H](CCCCN)C(=O)N[C@@H](CCC(N)=O)C(=O)N[C@@H](CCCCN)C(=O)N[C@@H](CCCCN)C(=O)N[C@@H](CCC(=O)O)C(=O)N[C@@H](CCCNC(=N)N)C(=O)N[C@@H](CCC(N)=O)C(=O)N[C@@H](CCCCN)C(=O)N[C@@H](C)C(=O)N[C@@H](CCC(=O)O)C(=O)N[C@H](C(=O)N[C@@H](CC(N)=O)C(=O)N[C@H](C(=O)N[C@@H](CCC(N)=O)C(=O)N[C@@H](CC(C)C)C(=O)N[C@@H](CC(C)C)C(=O)N[C@@H](CCC(=O)O)C(=O)N[C@@H](CCCNC(=N)N)C(=O)N[C@H](C(N)=O)C(C)C)C(C)C)[C@@H](C)O
B8: SEQ ID NO: 62 (peptide)
peptide: FTLSLDVPIKLKQILLKQQKQKKERQQAETNVQLLERV-NH2
modifications: not fully specified (residue 12); printed as FTLSLDVPIKLK*QILLKQQKQKKERQQAETNVQLLERV-NH2
B9: SEQ ID NO: 61 (peptide)
peptide: FTLSLDVPTKIKQILLKQQKQKKERQQAETNKQLLERV-NH2
modifications: not fully specified (residue 12); printed as FTLSLDVPTKIK*QILLKQQKQKKERQQAETNKQLLERV-NH2
B10: SEQ ID NO: 63 (peptide)
peptide: FTLSLDVPIKLKQILLEQQKQKKERQQAETNVQLLERV-NH2
modifications: not fully specified (residue 12); printed as FTLSLDVPIKLK*QILLEQQKQKKERQQAETNVQLLERV-NH2
B11: SEQ ID NO: 67 (peptide)
peptide: IVLSLDVPIKLK([AEEA-AEEA-γGlu-C18 diacid])QILLEQEKQKKQREQAETNKQILAQV-NH2
modifications: N-terminus assumed
SMILES: CC[C@H](C)[C@H](N)C(=O)N[C@H](C(=O)N[C@@H](CC(C)C)C(=O)N[C@@H](CO)C(=O)N[C@@H](CC(C)C)C(=O)N[C@@H](CC(=O)O)C(=O)N[C@H](C(=O)N1CCC[C@H]1C(=O)N[C@H](C(=O)N[C@@H](CCCCN)C(=O)N[C@@H](CC(C)C)C(=O)N[C@@H](CCCCNC(=O)COCCOCCNC(=O)COCCOCCNC(=O)CC[C@H](NC(=O)CCCCCCCCCCCCCCCCC(=O)O)C(=O)O)C(=O)N[C@@H](CCC(N)=O)C(=O)N[C@H](C(=O)N[C@@H](CC(C)C)C(=O)N[C@@H](CC(C)C)C(=O)N[C@@H](CCC(=O)O)C(=O)N[C@@H](CCC(N)=O)C(=O)N[C@@H](CCC(=O)O)C(=O)N[C@@H](CCCCN)C(=O)N[C@@H](CCC(N)=O)C(=O)N[C@@H](CCCCN)C(=O)N[C@@H](CCCCN)C(=O)N[C@@H](CCC(N)=O)C(=O)N[C@@H](CCCNC(=N)N)C(=O)N[C@@H](CCC(=O)O)C(=O)N[C@@H](CCC(N)=O)C(=O)N[C@@H](C)C(=O)N[C@@H](CCC(=O)O)C(=O)N[C@H](C(=O)N[C@@H](CC(N)=O)C(=O)N[C@@H](CCCCN)C(=O)N[C@@H](CCC(N)=O)C(=O)N[C@H](C(=O)N[C@@H](CC(C)C)C(=O)N[C@@H](C)C(=O)N[C@@H](CCC(N)=O)C(=O)N[C@H](C(N)=O)C(C)C)[C@@H](C)CC)[C@@H](C)O)[C@@H](C)CC)[C@@H](C)CC)C(C)C)C(C)C
B12: SEQ ID NO: 3 (peptide)
peptide: IVLSLDVPIKLK([γGlu-Palmitoyl])KILLEQEKQEKEKQQAEKNAQILAQV-NH2
modifications: N-terminus assumed
SMILES: CCCCCCCCCCCCCCCC(=O)N[C@@H](CCC(=O)NCCCC[C@H](NC(=O)[C@H](CC(C)C)NC(=O)[C@H](CCCCN)NC(=O)[C@@H](NC(=O)[C@@H]1CCCN1C(=O)[C@@H](NC(=O)[C@H](CC(=O)O)NC(=O)[C@H](CC(C)C)NC(=O)[C@H](CO)NC(=O)[C@H](CC(C)C)NC(=O)[C@@H](NC(=O)[C@@H](N)[C@@H](C)CC)C(C)C)C(C)C)[C@@H](C)CC)C(=O)N[C@@H](CCCCN)C(=O)N[C@H](C(=O)N[C@@H](CC(C)C)C(=O)N[C@@H](CC(C)C)C(=O)N[C@@H](CCC(=O)O)C(=O)N[C@@H](CCC(N)=O)C(=O)N[C@@H](CCC(=O)O)C(=O)N[C@@H](CCCCN)C(=O)N[C@@H](CCC(N)=O)C(=O)N[C@@H](CCC(=O)O)C(=O)N[C@@H](CCCCN)C(=O)N[C@@H](CCC(=O)O)C(=O)N[C@@H](CCCCN)C(=O)N[C@@H](CCC(N)=O)C(=O)N[C@@H](CCC(N)=O)C(=O)N[C@@H](C)C(=O)N[C@@H](CCC(=O)O)C(=O)N[C@@H](CCCCN)C(=O)N[C@@H](CC(N)=O)C(=O)N[C@@H](C)C(=O)N[C@@H](CCC(N)=O)C(=O)N[C@H](C(=O)N[C@@H](CC(C)C)C(=O)N[C@@H](C)C(=O)N[C@@H](CCC(N)=O)C(=O)N[C@H](C(N)=O)C(C)C)[C@@H](C)CC)[C@@H](C)CC)C(=O)O
B13: SEQ ID NO: 66 (peptide)
peptide: FTLSLDVPIGLKQILLKQQKQKKERQKAETNVQLLERV-NH2
modifications: not fully specified (residue 12); printed as FTLSLDVPIGLK*QILLKQQKQKKERQKAETNVQLLERV-NH2

What follows are binders tested against human corticotropin-releasing factor 2α (CRF2 α receptor) (human), Q13324 (assay: cell-based or functional assay).
Sequence of human corticotropin-releasing factor 2α (CRF2 α receptor) (human), Q13324 (Q13324 20-411): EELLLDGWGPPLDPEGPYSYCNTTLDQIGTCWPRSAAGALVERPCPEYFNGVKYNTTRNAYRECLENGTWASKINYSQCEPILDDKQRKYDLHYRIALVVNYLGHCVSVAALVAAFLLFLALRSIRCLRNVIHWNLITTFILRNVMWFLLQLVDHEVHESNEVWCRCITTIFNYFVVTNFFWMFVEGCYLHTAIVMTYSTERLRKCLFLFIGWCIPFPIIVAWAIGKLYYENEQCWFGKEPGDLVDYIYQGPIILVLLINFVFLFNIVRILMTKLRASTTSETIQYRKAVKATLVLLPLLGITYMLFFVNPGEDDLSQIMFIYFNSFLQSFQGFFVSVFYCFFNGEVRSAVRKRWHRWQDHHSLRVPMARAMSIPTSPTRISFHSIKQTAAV

EC50 [nM], 0% HSA | EC50 [nM], 0.1% HSA | Binder
0.28 nM | – | B1
0.15 nM | 17.4 nM | B2
22.9 nM | – | B3
0.48 nM | – | B4
9.31 nM | – | B5
13.2 nM | – | B6
38.8 nM | – | B7
0.8 nM | – | B8
0.38 nM | – | B9
0.63 nM | – | B10
0.57 nM | – | B11
0.01 nM | – | B12
25.4 nM | – | B13
